Assay results reported in publication PMC5489075, “Purification and characterisation of the fission yeast Ndc80 complex” (Protein Expression and Purification, 2017).

Biological target: T1, Ndc80-eGFP holo complex (S. pombe, UniProt Q10198 1-624; Q10173 1-441; Q9UST6 1-198; Q10430 1-238)
T1 construct: Ndc80, S. pombe, full-length 624 a.a; Nuf2, S. pombe, full-length 441 a.a; Spc24, S. pombe, full-length 198 a.a; Spc25, S. pombe, full-length 238 a.a; also called Ndc80 holo complex; Ndc80 complex; source: E. coli BL21 (DE3) RIL; two sub-complexes purified, mixed, purified (Ni-TED, TEV cleavage, Superose 6 size-exclusion chromatography); not shown: 6His-Z, N-terminal, cleaved; Z-tag, N-terminal, …
Assay: TIRF microscopy; 100 pM Ndc80-eGFP holo complex on dynamic Cy5-microtubules with 10 nM unlabelled Dis1 or 20 nM unlabelled Mal3; read-out is the place of the eGFP signal (lattice or growing plus end); BRB80 with 85 mM KCl, 30 °C
Conditions: both partners purified

T1 sequence (Q10198 whole entry, chain 1 of 4): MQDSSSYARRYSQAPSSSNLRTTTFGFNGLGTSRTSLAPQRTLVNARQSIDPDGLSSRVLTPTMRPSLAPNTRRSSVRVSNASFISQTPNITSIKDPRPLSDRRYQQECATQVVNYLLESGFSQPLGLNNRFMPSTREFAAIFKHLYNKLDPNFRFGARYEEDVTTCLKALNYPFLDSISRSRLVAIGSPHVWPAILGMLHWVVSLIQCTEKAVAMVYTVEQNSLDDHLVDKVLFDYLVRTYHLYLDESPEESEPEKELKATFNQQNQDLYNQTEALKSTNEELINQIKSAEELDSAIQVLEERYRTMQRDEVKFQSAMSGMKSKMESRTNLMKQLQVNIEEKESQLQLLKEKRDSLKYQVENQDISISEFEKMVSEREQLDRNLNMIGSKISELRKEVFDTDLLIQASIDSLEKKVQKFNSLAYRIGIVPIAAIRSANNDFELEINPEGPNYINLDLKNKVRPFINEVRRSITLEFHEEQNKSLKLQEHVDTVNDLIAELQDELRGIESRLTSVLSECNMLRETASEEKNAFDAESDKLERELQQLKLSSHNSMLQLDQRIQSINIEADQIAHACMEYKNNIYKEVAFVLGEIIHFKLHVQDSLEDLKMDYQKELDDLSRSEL
T1 sequence (Q10173 whole entry, chain 2 of 4): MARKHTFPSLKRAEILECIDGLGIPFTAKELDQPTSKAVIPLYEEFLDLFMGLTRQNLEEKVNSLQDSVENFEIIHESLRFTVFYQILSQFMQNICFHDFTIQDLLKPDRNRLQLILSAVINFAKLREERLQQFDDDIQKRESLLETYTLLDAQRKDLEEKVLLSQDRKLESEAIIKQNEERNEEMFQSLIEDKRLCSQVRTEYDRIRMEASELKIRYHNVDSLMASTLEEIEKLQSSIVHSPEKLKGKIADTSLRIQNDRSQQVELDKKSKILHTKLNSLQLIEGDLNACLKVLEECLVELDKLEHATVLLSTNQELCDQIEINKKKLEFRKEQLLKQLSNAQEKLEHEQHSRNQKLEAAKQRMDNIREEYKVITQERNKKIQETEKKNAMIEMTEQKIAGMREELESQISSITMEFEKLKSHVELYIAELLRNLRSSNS
T1 sequence (Q9UST6 whole entry, chain 3 of 4): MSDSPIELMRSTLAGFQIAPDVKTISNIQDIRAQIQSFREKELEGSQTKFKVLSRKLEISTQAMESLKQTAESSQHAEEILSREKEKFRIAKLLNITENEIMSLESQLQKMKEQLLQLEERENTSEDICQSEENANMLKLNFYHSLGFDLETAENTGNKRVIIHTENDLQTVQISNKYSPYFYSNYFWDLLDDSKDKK
T1 sequence (Q10430 whole entry, chain 4 of 4): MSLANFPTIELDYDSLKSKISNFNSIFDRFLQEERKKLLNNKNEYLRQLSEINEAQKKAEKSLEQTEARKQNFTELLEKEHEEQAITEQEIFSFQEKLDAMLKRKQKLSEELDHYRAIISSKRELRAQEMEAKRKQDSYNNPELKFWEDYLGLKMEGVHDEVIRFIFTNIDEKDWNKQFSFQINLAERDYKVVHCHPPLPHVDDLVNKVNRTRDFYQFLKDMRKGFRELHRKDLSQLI

binding result: binds
B1: Mal3 (natural protein, S. pombe, UniProt Q10113 1-308, looked up)
chain: MSESRQELLAWINQVTSLGLTRIEDCGKGYAMIQIFDSIYQDIPLKKVNFECNNEYQYINNWKVLQQVFLKKGIDKVVDPERLSRCKMQDNLEFVQWAKRFWDQYYPGGDYDALARRGNRGPANTRVMNSSAGATGPSRRRQVSSGSSTPSMTKSSANNNNVSSTANTAAVLRAKQAQQQITSLETQLYEVNETMFGLERERDFYFNKLREIEILVQTHLTTSPMSMENMLERIQAILYSTEDGFELPPDQPADLTTALTDHDTNNVAEEAQMTDLKDSETQRVPSAPDFVHARLQSLEVDDDENITF
notes: Mal3, fission yeast EB1 microtubule plus-end tracking protein; also called Mal3/EB1; unlabelled Mal3
